Experimental data published in patent US20040132067, “Systematic evolution of ligands by exponential enrichment: photoselection of nucleic acid ligands and solution selex” (SOMALOGIC, INC., published 2004).

Assays:
HIV-1 Rev [1] = molecular target: T1, HIV-1 Rev (Human immunodeficiency virus 1, UniProt P04618 P04618:1-116); test: photo-independent crosslinking seen at 50 nM Rev in 1:100 weight ratio with human nuclear extract
Method: Trunc24 (SEQ ID NO:59) photo-independent crosslinking with HIV-1 Rev in the presence of human nuclear extracts was determined as follows: Trunc24 RNA, nuclear extracts, and Rev protein were combined and incubated on ice for 10 min. Samples were mixed 1:1 with 8 M urea loading buffer and placed on a 7 M urea, 8% polyacrylamide gel for analysis, XL indicates the nucleoprotein complex, RNA indicates free trunc24 RNA.

HIV-1 Rev [2] = molecular target: T1, HIV-1 Rev; test: photocrosslinking 325 nm, 4 min, 500 nM protein, 20 ug tRNA, 37 C
Description: The sequences are aligned for maximum homology to the 6a sequence (SEQ ID NO:5). Underlines represent potential base pairing as indicted by computer RNA folding algorithms. Dashed underlines represent the 6a ligand “bubble” motif. Sequences flanked by underline represent either loop or bulge regions. Dashes are placed to maximize alignment with 6a. * denotes that two isolates were obtained. +indicates laser independent crosslinking and—denotes the lack of laser independent crosslinking to HIV-1 Rev. […] FIGS. 18 and 19 show the sequence of Trunc2 (SEQ ID NO:58) and Trunc24 (SEQ-ID NO:59) and the specificity results. 500 nM protein, 20 μg tRNA, and approximately 1 nM of kinased trunc2 RNA were incubated for 10 min. at 37° C. and irradiated for 4 min at 325 nm. t2-trunc2 RNA irradiated without added protein; t2Rev1/O′-trunc2 RNA, HIV-1 Rev protein and 0 min. of irradiation; t2/Rev1/4′-trunc2 RNA, HIV-1 Rev protein, adn 4 min. of irradiation; t2/Rev1/4′/PK-trunc2 RNA, HIV-1 Rev protein, 4 min. or irradiation, and proteinase K treated as in FIG. 1; t2/Rev2/4′-trunc2 RNA, HIV-2 Rev protein, and 4 min. of irradiation; t2/Tat/4′-trunc2 RNA, HIV-1 Tat protein, and 4 min. of irradiation. R-free RNA; XL-crosslinked nucleoprotein complex.

T1 sequence (P04618 whole entry, one chain of several): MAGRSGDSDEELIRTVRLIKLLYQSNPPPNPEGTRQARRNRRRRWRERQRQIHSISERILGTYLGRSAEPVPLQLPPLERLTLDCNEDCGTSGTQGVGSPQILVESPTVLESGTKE

Binder	binding result (HIV-1 Rev [1])	binding result (HIV-1 Rev [2])
GGGGAUUAACAGGCACACCUGUUAACCCU (ssRNA) [trunc24]	binds	
GGGUGUAUGAAACACCACGUGUGUUUCCACUC (ssRNA, 5-iodouracil at all U) [trunc2]		binds
